One block for each molecule: values may come before it. Positions of bridges follow the written chain, without caps; N, C: chain ends. No end group written: not given here. *: point of attachment. 125I = [125I]*
Experiments:
[1] = biological target: rat CCKB receptor (rat) (UniProt P30553); experiment: cell-based or functional assay
[2] = biological target: yeast Gβγ (Saccharomyces cerevisiae) (UniProt P18851); experiment: cell-based or functional assay
[3] = biological target: human GRF receptor (human) (UniProt Q02643); experiment: cell-based or functional assay
[4] = biological target: T1, rat SSTR2 somatostatin receptor subtype (rat, UniProt P30680 1-369); experiment: radioligand saturation binding, yeast membranes coexpressing Scg1/Gαi2
T1 construct: whole, on cells; Tested in yeast cells or crude yeast membranes; also called somatostatin receptor subtype 2
T1 sequence (P30680 whole entry): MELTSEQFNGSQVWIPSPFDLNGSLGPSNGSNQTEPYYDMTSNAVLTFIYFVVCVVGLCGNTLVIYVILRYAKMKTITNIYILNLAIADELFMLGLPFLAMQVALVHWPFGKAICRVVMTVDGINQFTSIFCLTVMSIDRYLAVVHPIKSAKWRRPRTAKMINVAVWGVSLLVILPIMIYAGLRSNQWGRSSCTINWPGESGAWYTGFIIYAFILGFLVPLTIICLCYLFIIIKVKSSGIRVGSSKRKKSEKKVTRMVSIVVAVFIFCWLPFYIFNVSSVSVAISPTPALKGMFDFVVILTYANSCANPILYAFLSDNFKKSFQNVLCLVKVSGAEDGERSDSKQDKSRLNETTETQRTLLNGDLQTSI

Chain of rat CCKB receptor (rat) (P30553 whole entry): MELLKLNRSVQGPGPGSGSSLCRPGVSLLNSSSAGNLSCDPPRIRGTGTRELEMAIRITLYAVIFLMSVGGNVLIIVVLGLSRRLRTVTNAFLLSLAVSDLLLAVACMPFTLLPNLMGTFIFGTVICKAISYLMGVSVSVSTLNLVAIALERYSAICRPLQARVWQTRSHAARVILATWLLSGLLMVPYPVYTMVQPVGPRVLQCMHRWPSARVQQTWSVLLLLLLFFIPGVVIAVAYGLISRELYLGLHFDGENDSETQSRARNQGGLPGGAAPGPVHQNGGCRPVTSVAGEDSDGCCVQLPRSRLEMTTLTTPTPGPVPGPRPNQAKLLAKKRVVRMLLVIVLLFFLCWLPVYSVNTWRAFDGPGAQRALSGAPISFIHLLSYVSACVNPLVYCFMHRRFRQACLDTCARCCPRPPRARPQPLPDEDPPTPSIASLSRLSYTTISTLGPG
Chain of human GRF receptor (human) (Q02643 23-423): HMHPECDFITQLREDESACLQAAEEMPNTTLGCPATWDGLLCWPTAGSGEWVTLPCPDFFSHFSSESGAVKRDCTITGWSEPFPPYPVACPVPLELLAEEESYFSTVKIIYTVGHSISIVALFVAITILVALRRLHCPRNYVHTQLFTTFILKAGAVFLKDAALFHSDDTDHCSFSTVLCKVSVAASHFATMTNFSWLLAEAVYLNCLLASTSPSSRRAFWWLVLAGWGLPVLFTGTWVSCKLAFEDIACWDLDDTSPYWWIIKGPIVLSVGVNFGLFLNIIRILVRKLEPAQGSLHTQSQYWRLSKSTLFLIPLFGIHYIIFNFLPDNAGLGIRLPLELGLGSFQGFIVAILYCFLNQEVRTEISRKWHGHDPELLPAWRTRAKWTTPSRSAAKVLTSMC
Chain of yeast Gβγ (Saccharomyces cerevisiae) (P18851 whole entry, chain 1 of 2): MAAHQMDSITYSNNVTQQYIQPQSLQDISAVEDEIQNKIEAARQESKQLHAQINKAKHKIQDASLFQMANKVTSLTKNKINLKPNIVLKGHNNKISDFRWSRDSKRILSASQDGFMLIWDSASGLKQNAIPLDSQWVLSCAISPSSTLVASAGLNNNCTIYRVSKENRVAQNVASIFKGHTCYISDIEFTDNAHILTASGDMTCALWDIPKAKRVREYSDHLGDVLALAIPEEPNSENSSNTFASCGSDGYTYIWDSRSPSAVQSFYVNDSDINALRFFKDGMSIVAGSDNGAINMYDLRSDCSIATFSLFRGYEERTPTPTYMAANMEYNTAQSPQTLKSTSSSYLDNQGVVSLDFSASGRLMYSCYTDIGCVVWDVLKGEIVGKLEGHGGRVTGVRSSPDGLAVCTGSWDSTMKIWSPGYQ
Chain of yeast Gβγ (Saccharomyces cerevisiae) (P18852 1-107, chain 2 of 2, further chain): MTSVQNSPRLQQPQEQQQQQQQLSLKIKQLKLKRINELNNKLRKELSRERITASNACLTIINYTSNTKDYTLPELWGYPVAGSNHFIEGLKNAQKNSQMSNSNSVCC

Molecule: hGRF (1-29)-NH2 (from UniProt P01286 32-60) (peptide)
growth response, agar plate bioassay, strain CY990 [3]: 20 nmol

Molecule: AGCKNFFWKTY(125I)TSC (disulfide 3-14 (inferred); ends not checked) [[^125I-tyr^11]-somatostatin 14]
Kd [4]: 0.6 nM

Continued, values first:

growth response, agar plate bioassay, strains LY628 and LY631 [1]: 10 µg
Molecule: CCK-4 (from UniProt P06307 100-103) (peptide)

reduction of pheromone-induced FUS1-lacZ signaling, CEN plasmid [2]: 16%
Molecule: rat Gαi2 (from UniProt P04897 2-355)
